Results published in US20150218594A1, “CELL-FREE AND MINIMIZED METABOLIC REACTION CASCADES FOR THE PRODUCTION OF CHEMICALS” (CLARIANT PRODUKTE (DEUTSCHLAND) GMBH, priority 2012, published 2015).
Where two headings read alike, the source gives them in different places. Marks after values point to notes of the source that are not given here. Values belong to the molecule of their own block, whether it stands above or below them.

Assays:
[1] = Enzyme temperature optimum; assay type: biochemical; details: Table 1
[2] = Isobutanol tolerance of enzymes (I50); assay type: biochemical
Thermal tolerance of PDC = assay type: physicochemical
[3] = PDC activity for natural substrate; assay type: biochemical
Text: (§1) (J. Mol. Catal. B-Enzym. 2009, 61, 30-35).

[4] = Ethanol tolerance of enzymes (E50); assay type: biochemical
[5] = Enzyme half-life at 50° C.
[6] = ALDH activity assay (glyceraldehyde to glycerate, NAD reduction); assay type: biochemical; details: natural substrate
Procedure: as §1
ALDH activity: ALDH activity was assayed at 50° C. by oxidizing D-glyceraldeyde to glycerate, whereby the coenzyme NAD is reduced to NADH. Assay mixture contained 50 mM HEPES (pH 7), 2.5 mM MgCl2, 2 mM NAD and 1 mM glyceraldehyde. (FEBS Lett. 2006, 580, 1198-1204)

[7] = Screening of TaALDH variants, relative activity under standard conditions (2 mM NAD); assay type: biochemical
Procedure: (§2) Colonies of E. coli BL21 (DE3) containing Ta-ALDH library were transferred into 96-deepwell plates (Gainer BioOne) containing Zym5052 autoinduction medium (Protein Expression and Purification, 2005. 41(1): p. 207-234). Cultures were grown over night at 37° C., 1000 rpm. Cells were harvested by centrifugation at 5000 g at 2° C. for 2 min and lysed with B-Per® protein extraction reagent (Thermo Fisher Scentific, Rockford, USA). After incubation for 60 min at 50° C., insoluble cell debris and was removed by centrifugation at 5000 g at 20° C. for 30 min. Supernatants containing variants of TaALDH were tested for relative activity under standard conditions: 2 mM NAD, 1 mM D-glyceraldehyde in 50 mM HEPES (pH 7) at 50° C. After 20 min NADH formation was detected spectrophotometrically at 340 nm.
(§3) The values “relative to wt” are the mU/mL values normalized to the wildtype control value.

[8] = cited from earlier work
[9] = Activity in solvents of Ta-ALDH variants (3 % isobutanol); assay type: biochemical
Procedure: as §2
Activity in solvents of Ta-ALDH variants was tested under standard assay conditions containing additional solvent. After 20 min NADH formation was detected and compared to relative activity.
as §3

[10] = Determination of specific activity of purified TaALDH variants; assay type: biochemical; details: purified enzyme, 1 mM D-Glyceraldehyde, 50° C., pH 7
Text: The Ta-aldh gene was cloned in pCBR-Chis expression vector as described above. Mutations F34L, F34M, Y399C, S405C and S405N were inserted into Ta-aldh gene by Quickchange PCR as described above. For recombinant expression, E. coli BL21 (DE3) was transformed with pCBR-Ta-aldh-Chis, pCBR-Ta-aldh-f34I-s405c-Chis, pCBR-Ta-aldh-f34m-s405n-Chis or pCBR-Ta-aldh-f34m-y399c-s405n-Chis. Each of the four variants was produced using the following protocol:
Large amounts of a TaALDH-Variant were produced with fed-batch fermentation in a 40 L Biostat Cplus bioreactor (Sartorius Stedim, Goettingen, Germany). Defined media was supplemented with 30 μg/ml kanamycin. After inoculation cells were grown at 30° C. for 24 h and induced with 0.3 mM IPTG. Enzyme expression was performed at 30° C. for 3 h. One fermentation produced 300 g cells (wet weight). Cells were harvested and lysed with Basic-Z Cell Disruptor (Constant Systems, Northants, UK) in loading buffer (200 mM NaCl; 20 mM Imidazol; 2.5 mM MgCl2; 50 mM NaPi, pH 6.2). After heat treatment at 50° C. for 30 min, cell debris and protein aggregates were separated from soluble fraction by centrifugation at 30,000 g at 20° C. for 30 min (Sorvall RC6+, SS-34 rotor, Thermo Scientific).
Soluble fraction of His-tagged TaALDH-Variant was further purified by Ni-NTA chromatography using ÄKTA UPC-900 FPLC-system (GE Healthcare, Freiburg, Germany). Supernatant was loaded on HiTrap FF-column and washed with two column volumes of loading buffer. Highly purified and concentrated TaALDH was fractioned after elution in imidazole buffer (200 mM NaCl; 500 mM imidazol; 50 mM NaPi, pH 6.2). Buffer was changed to 20 mM (NH4)HCO3 with HiPrep 26/10 Desalting column and TaALDH was lyophilized with an Alpha 2-4 LD Plus freeze dryer (Martin Christ GmbH, Osterode am Harz, Germany).
TaALDH activity was determined spectrophotometrically at 50° C. by measuring the rate of cofactor reduction at 340 nm in flat bottom microtiter plates (Grainer BioOne) with a Fluorostar Omega Photometer (BMG Labtech GmbH, Ortenberg, Germany). One unit of activity was defined as reduction of 1 μmol of cofactor per minute.

[11] = Cofactor acceptance of Ta-ALDH variants (10 mM NAD); assay type: biochemical
Procedure: as §2
Change in cofactor acceptance of Ta-ALDH variants was tested under standard assay conditions but with 10 mM NAD. After 20 min NADH formation was detected and compared to relative activity.
as §3

[12] = KDGA activity in cleavage direction (HPLC); assay type: biochemical; details: natural substrate
Procedure: as §1
KDGA activity: KDGA activity was followed in cleavage direction at 50° C. Reaction mixture contained 50 mM HEPES (pH 7), 0.1 mM thiamine pyrophosphate, 2.5 mM MgCl2, 20 U PDC and 10 mM KDG. KDG cleavage was followed by HPLC as described below.
Sample volume was 10 μl in each case.

[13] = ADH activity, NADH-dependent reduction of isobutyraldehyde; assay type: biochemical; details: substrate isobutyraldehyde
Text: as §1

[14] = ADH activity with acetaldehyde as substrate; assay type: biochemical
Text: as §1

[15] = Table 1, value with literature reference
[16] = Table 2, value with literature reference

- T-Optimum [1]: 50 50 °C
B1: PDC: Pyruvate decarboxylase PDC (EC 4.1.1.1), Zymomonas mobilis, Seq ID 20 (protein)
chain: MSYTVGTYLAERLVQIGLKHHFAVAGDYNLVLLDNLLLNKNMEQVYCCNELNCGFSAEGYARAKGAAAAVVTYSVGALSAFDAIGGAYAENLPVILISGAPNNNDHAAGHVLHHALGKTDYHYQLEMAKNITAAAEAIYTPEEAPAKIDHVIKTALREKKPVYLEIACNIASMPCAAPGPASALFNDEASDEASLNAAVEETLKFIANRDKVAVLVGSKLRAAGAEEAAVKFADALGGAVATMAAAKSFFPEENPHYIGTSWGEVSYPGVEKTMKEADAVIALAPVFNDYSTTGWTDIPDPKKLVLAEPRSVVVNGIRFPSVHLKDYLTRLAQKVSKKTGALDFFKSLNAGELKKAAPADPSAPLVNAEIARQVEALLTPNTTVIAETGDSWFNAQRMKLPNGARVEYEMQWGHIGWSVPAAFGYAVGAPERRNILMVGDGSFQLTAQEVAQMVRLKLPVIIFLINNYGYTIEVMIHDGPYNNIKNWDYAGLMEVFNGNGGYDSGAGKGLKAKTGGELAEAIKVALANTDGPTLIECFIGREDCTEELVKWGKRVAAANSRKPVNKLLSGRPVLGSSHHHHHH
modifications: Pyruvate decarboxylase (EC 4.1.1.1), Zymomonas mobilis Protein sequence including C-terminal His-Tag
- I50: Isobutanol concentration which causes loss of 50% activity ([2]; 45° C.): 8 (45° C.) % v/v
- thermostable up to (Thermal tolerance of PDC): up to 50 °C
- Activity, 50° C. [3]: 64 U/mg
- E50: Ethanol concentration which causes loss of 50% activity ([4]; 50° C.): 20 (50° C.) % v/v
- Half-life, 50° C. [5]: 22 h

B2: F34M Y399C S405N: Aldehyde Dehydrogenase ALDH (EC 1.2.1.3), Thermoplasma acidophilum, Mutations F34M+Y399C+S405N, Seq ID 10; the engineered ALDH of Tables 1 and 2 (protein)
chain: MDTKLYIDGQWVNSSSGKTVDKYSPVTGQVIGRMEAATRDDVDRAIDAAEDAFWAWNDLGSVERSKIIYRAKELIEKNRAELENIIMEENGKPVKEAKEEVDGVIDQIQYYAEWARKLNGEVVEGTSSHRKIFQYKVPYGIVVALTPWNFPAGMVARKLAPALLTGNTVVLKPSSDTPGSAEWIVRKFVEAGVPKGVLNFITGRGSEIGDYIVEHKKVNLITMTGSTATGQRIMQKASANMAKLILELGGKAPFMVWKDADMDNALKTLLWAKYWNAGQSCIAAERLYVHEDIYDTFMSRFVELSRKLALGDPKNADMGPLINKGALQATSEIVEEAKESGAKILFGGSQPSLSGPYRNGYFFLPTIIGNADQKSKIFQEEIFAPVIGARKISSVEEMCDLANDNKYGLASYLFTKDPNIIFEASERIRFGELYVNMPGPEASQGYHTGFRMTGQAGEGSKYGISEYLKLKNIYVDYSGKPLHINTVRDDLFQSGRPVLGSSHHHHHH
modifications: Aldehyde Dehydrogenase (EC 1.2.1.3), Thermoplasma acidophilum, variant F34M-Y399C-S405N Protein sequence including C-terminal His-Tag
- isobutanol concentration that already induces adverse effects on activity [2]: 3 % (v/v)
- I50: Isobutanol concentration which causes loss of 50% activity ([2]; 50° C.): 3 (50° C.) % v/v
- Activity, 50° C. [6]: 1 U/mg
- 2 mM NAD (mU/mL) ([7]; 1 mM D-glyceraldehyde, 50° C., pH 7, lysate supernatant): 130.81 mU/mL
- relative to wt ([7]; mU/mL values normalized to the wildtype control value): 45.3
- T-Optimum [8, 15]: 63^[2] 50 °C
- T-Optimum [8, 16]: 63^[2] ° C.
- 3 % isobutanol, 2 mM NAD (mU/mL) ([9]; 3 % isobutanol, 2 mM NAD, 50° C., pH 7): 74.77 mU/mL
- relative to wt ([9]; 3 % isobutanol, 2 mM NAD, normalized to the wildtype control value): 46.9
- Stab. rel to wt ([9]; stability in 3 % isobutanol relative to wildtype): 1
- E50: Ethanol concentration which causes loss of 50% activity ([4]; 60° C.): 13 (60° C.) % v/v
- specific activity (U/mg) at 2 mM NAD [10]: 1.2 U/mg
- 10 mM NAD (mU/mL) ([11]; 10 mM NAD, 1 mM D-glyceraldehyde, 50° C., pH 7): 396.91 mU/mL
- relative to wt ([11]; 10 mM NAD, normalized to the wildtype control value): 33.3
- 10 mM NAD /2 mM NAD ([11]; ratio of activity at 10 mM NAD to 2 mM NAD): 0.7
- Half-life, 50° C. [5]: 12 h

B3: KDGA: 2-Keto-3-deoxygluconate aldolase KDGA (EC 4.1.2.14), Sulfolobus acidocaldaricus, Seq ID 06 (protein, listed as Sulfolobus acidocaldarius)
chain: MEIISPIITPFDKQGKVNVDALKTHAKNLLEKGIDAIFVNGTTGLGPALSKDEKRQNLNALYDVTHKLIFQVGSLNLNDVMELVKFSNEMDILGVSSHSPYYFPRLPEKFLAKYYEEIARISSHSLYIYNYPAATGYDIPPSILKSLPVKGIKDTNQDLAHSLEYKLNLPGVKVYNGSNTLIYYSLLSLDGVVASFTNFIPEVIVKQRDLIKQGKLDDALRLQELINRLADILRKYGSISAIYVLVNEFQGYDVGYPRPPIFPLTDEEALSLKREIEPLKRKIQELVH
- I50: Isobutanol concentration which causes loss of 50% activity ([2]; 60° C., above solubility): >12 (60° C.)^b % v/v
- activity in a two-phase isobutanol/water system ([2]; two-phase system forms at product titers above 12% (v/v)): remains completely active
- T-Optimum [8, 15]: 99^[1] 50 °C
- T-Optimum [8, 16]: 99^[1] ° C.
- Activity, 50° C. [12]: 4 U/mg
- E50: Ethanol concentration which causes loss of 50% activity ([4]; 60° C.): 15 (60° C.) % v/v
- Half-life, 50° C. [5]: >24 h

B4: ADH: Alcohol dehydrogenase ADH (EC 1.1.1.1), Geobacillus stearothermophilus, Seq ID 18 (protein)
chain: MKAAVVEQFKEPLKIKEVEKPTISYGEVLVRIKACGVCHTDLHAAHGDWPVKPKLPLIPGHEGVGIVEEVGPGVTHLKVGDRVGIPWLYSACGHCDYCLSGQETLCEHQKNAGYSVDGGYAEYCRAAADYVVKIPDNLSFEEAAPIFCAGVTTYKALKVTGAKPGEWVAIYGIGGLGHVAVQYAKAMGLNVVAVDIGDEKLELAKELGADLVVNPLKEDAAKFMKEKVGGVHAAVVTAVSKPAFQSAYNSIRRGGACVLVGLPPEEMPIPIFDTVLNGIKIIGSIVGTRKDLQEALQFAAEGKVKTIIEVQPLEKINEVFDRMLKGQINGRVVLTLEDKLEHHHHHH
modifications: Alcohol dehydrogenase (EC 1.1.1.1), Geobacillus stearothermophilus Protein sequence including C-terminal His-Tag
- I50: Isobutanol concentration which causes loss of 50% activity ([2]; 50° C.): 5 (50° C.) % v/v
- Activity, 50° C. (ADH for isobutyraldehyde) [13]: 83 U/mg
- Activity, 50° C. (ADH for acetaldehyde) [14]: 210 U/mg
- T-Optimum [8, 15]: >60^[3] 50 °C
- T-Optimum [8, 16]: >60^[3] ° C.
- E50: Ethanol concentration which causes loss of 50% activity ([4]; 50° C.): 25 (50° C.) % v/v
- Half-life, 50° C. [5]: >24 h
